Results on one substance are retold here after patent US5917018.

The test has as its target natural class I heavy chain molecules. Briefly: binding to class I heavy chain, method not given.

With recombinant murine β2-microglobulin, the affinity against that of human β2-microglobulin came out at 5 times lower.
